Experimental findings from patent US20250011454A1 (published 2025) are described below.

Residue numbers refer to the chain shown, from its start.

What all share (assay): cell-based or functional assay
The target in assay [1] is PSMA (UniProt Q04609 44-750, limits assumed).
Assay [2] addresses T1, KLK2 (UniProt P20151 25-261, limits assumed).
Assay [3] deals with T1, KLK2. The source holds these as a separate data set.

T1 sequence (P20151 25-261 limits assumed): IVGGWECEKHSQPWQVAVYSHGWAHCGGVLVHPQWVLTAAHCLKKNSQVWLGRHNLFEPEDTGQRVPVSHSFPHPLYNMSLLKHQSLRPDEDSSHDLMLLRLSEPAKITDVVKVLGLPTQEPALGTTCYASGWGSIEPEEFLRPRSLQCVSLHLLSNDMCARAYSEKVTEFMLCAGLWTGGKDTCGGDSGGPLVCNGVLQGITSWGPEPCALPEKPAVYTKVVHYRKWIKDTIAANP
Sequence of PSMA (Q04609 44-750 limits assumed): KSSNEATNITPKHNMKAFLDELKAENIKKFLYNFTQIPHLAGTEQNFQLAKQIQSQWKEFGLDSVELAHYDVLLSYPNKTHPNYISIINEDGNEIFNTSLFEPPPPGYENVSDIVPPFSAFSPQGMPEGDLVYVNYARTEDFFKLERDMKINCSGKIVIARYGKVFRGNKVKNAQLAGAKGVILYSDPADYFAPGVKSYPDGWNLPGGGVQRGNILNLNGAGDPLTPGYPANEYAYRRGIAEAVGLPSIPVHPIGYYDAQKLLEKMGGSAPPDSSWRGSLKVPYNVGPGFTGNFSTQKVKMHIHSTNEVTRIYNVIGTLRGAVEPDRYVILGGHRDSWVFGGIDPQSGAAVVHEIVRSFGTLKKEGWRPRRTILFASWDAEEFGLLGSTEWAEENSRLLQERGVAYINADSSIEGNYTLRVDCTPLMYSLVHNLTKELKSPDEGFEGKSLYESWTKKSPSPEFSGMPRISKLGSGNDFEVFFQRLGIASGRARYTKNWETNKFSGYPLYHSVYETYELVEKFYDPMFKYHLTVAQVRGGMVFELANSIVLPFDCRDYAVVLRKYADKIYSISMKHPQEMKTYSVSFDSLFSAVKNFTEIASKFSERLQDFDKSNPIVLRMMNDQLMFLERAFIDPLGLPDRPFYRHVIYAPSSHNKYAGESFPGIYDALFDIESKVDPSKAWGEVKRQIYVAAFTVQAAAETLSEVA

B1: PSMB952 (antibody, V domains shown)
VH: EVQLVESGGGLVQPGGSLRLSCAASGFTFSSYAMSWVRQAPGKGLEWVSAISGGIGSTYYADSVKGRFTISRDNSKNTLWLQMNSLRAEDTAVYYCAKDGVGATPYYFDYWGQGTLVTVSS
VL: QSVLTQPPSVSAAPGQKVTISCSGSSSNIGINYVSWYQQLPGTAPKLLIYDNNKRPSGIPDRFSGSKSGTSATLGITGLQTGDEADYYCGTWDSSLSAVVFGGGTKLTVL
As for B1, in assay [1], the “In vitro ADCC killing EC50 (M), C42B cells, NK cells, 24 hour” value turned out to be 2.45e-11 M; the “In vitro ADCC killing EC50 (M), C42B cells, PBMC, 6 hour” value came to 3.51e-10 M; the “In vitro ADCC killing EC50 (M), LNCaP cells, NK cells, 24 hour” value worked out at 4.59e-11 M; the “In vitro ADCC killing EC50 (M), LNCaP cells, PBMC, 6 hour” value worked out at 2.01e-10 M.

B2: PSMB956 (antibody, V domains shown)
VH: B1 VH with I55S, W80Y, T91S
VL: B1 VL
For B2, in assay [1], the “In vitro ADCC killing EC50 (M), C42B cells, NK cells, 24 hour” value was determined as 9.96e-12 M; the “In vitro ADCC killing EC50 (M), C42B cells, PBMC, 6 hour” value was 4.23e-10 M; the “In vitro ADCC killing EC50 (M), LNCaP cells, NK cells, 24 hour” value is 3.58e-11 M; the “In vitro ADCC killing EC50 (M), LNCaP cells, PBMC, 6 hour” value was 1.52e-10 M.

B3: KL2B870 (antibody, human IgG1, kappa)
heavy: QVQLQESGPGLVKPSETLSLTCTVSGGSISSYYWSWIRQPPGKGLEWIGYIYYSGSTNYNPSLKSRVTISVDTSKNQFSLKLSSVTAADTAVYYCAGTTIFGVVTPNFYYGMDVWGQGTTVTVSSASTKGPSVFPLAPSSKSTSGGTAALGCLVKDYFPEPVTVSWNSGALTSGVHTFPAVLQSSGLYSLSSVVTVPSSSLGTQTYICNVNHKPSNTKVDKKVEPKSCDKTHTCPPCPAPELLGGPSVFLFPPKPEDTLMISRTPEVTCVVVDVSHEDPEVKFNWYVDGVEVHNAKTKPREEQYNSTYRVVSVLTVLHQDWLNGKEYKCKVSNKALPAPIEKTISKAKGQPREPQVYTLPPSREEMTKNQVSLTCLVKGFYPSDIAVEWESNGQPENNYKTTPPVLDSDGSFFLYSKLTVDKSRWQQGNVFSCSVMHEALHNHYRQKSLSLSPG
light: DIQMTQSPSFLSASVGDRVTITCRASQGISSYLAWYQQKPGKAPKFLIYAASTLQSGVPSRFSGSGSGTEFTLTISSLQPEDFATYYCQQLNSYPLTFGGGTKVEIKRTVAAPSVFIFPPSDEQLKSGTASVVCLLNNFYPREAKVQWKVDNALQSGNSQESVTEQDSKDSTYSLSSTLTLSKADYEKHKVYACEVTHQGLSSPVTKSFNRGEC
On to B3, for which the “EC50 (M), ADCC killing of VCaP cells by PBMC at 48 hour” value (“EC50 (M), ADCC killing of VCaP cells” below) in assay [2] was determined as 1e-09 M. Also, the “ADCC activity, cell killing of VCaP cells by PBMC” value (from here on “ADCC activity, cell killing”) in assay [3] was roughly 73%.

B4: KL2B872.CLF (antibody, human IgG1, kappa)
heavy: not shown
light: B3 light
In the case of B4, in assay [2], the “EC50 (M), ADCC killing of VCaP cells” value was found to be 4.12e-10 M. The “ADCC activity, cell killing” value in assay [3] was roughly 85%.

B5: KL2B870.CLF (antibody, human IgG1, kappa)
heavy: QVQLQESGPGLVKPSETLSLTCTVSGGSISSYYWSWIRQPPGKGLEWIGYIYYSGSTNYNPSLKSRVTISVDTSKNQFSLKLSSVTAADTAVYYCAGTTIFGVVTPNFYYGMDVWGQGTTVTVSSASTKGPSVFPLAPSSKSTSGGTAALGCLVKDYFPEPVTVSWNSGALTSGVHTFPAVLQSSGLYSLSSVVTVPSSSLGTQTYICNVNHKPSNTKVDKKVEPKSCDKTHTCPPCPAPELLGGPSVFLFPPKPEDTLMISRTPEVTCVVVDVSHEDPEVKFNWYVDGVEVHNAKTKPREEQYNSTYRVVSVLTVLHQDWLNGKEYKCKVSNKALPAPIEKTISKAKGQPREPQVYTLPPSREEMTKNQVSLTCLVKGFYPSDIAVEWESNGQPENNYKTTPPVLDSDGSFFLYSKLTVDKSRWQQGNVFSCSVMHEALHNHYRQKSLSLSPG
light: B3 light
For B5, the “EC50 (M), ADCC killing of VCaP cells” value in assay [2] came out at 3.54e-10 M. Also, in assay [3], the “ADCC activity, cell killing” value is roughly 89%.
